# According to patent US20250122242A1 (WISCONSIN ALUMNI RESEARCH FOUNDATION, published 2025):
# Key:
# [1] = molecular target: T1, hIAPP-T7n (human islet amyloid polypeptide fused through a GGSGG linker to the N-terminal half of split T7 … (human)); assay: cell-based or functional assay
# T1 chain: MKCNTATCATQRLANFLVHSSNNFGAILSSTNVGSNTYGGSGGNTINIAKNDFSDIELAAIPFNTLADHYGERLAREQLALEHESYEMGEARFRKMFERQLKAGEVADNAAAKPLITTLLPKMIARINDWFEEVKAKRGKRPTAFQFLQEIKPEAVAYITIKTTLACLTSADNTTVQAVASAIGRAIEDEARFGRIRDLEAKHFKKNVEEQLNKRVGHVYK
# [2] = molecular target: Aβ42-T7n (amyloid-β42 fused through a GGSGG linker to the N-terminal half of split T7 RNA polymerase); assay: cell-based or functional assay
Binder,propagation of clonal SP on hIAPP against Aβ42 selection cells [1] [fold],further results
cyclo(CDLGVFR) (not fully specified; printed as cyclo-CDLGVFR) [cyclo-CDLGVFR (SEQ ID NO:68) encoded on selection phage as SICLOPPS precursor],~1000,
cyclo(CRCVFSG) (not fully specified; printed as cyclo-CRCVFSG; cysteine pairing not given here) [cyclo-CRCVFSG (SEQ ID NO:69) encoded on selection phage as SICLOPPS precursor],~10,
cyclo(CKVWQLL) (not fully specified; printed as cyclo-CKVWQLL) [cyclo-CKVWQLL (SEQ ID NO:30) encoded on parent selection phage as SICLOPPS precursor],,"fold phage propagation on E. coli encoding the Aβ42-T7n selection, against SP carrying scrambled control cyclo-CVQWLKL [2]: ~500 fold"
cyclo(CKVWQLL) (not fully specified; printed as cyclo-CKVWQLL),,"fold phage propagation on E. coli encoding the Aβ42-T7n selection, against scrambled control [2]: ~300 fold"
